Publication PMC5737488
Values joined by “and” are separate entries in the source; they are usually repeats but may differ in a detail not shown here. Identical values can stand only once.

What was measured:
[1] = biological target: vacant E. coli 70S ribosome (lacking bound mRNA and tRNAs) (E. coli) (UniProt P0AG67); assay: co-sedimentation
[2] = biological target: E. coli RNA polymerase core enzyme (α2ββ′ω) (E. coli) (UniProt P0A7Z4); assay: co-sedimentation

| Substance | Kd [1] | percent bound to the ribosome [1] | percent of RNA polymerase co-migrating with ribosomes [1] | stoichiometry N (RNA polymerase per ribosome) [1] | KD (fit assuming only monomeric holoenzyme) [1] | stoichiometry N (ribosome per RNA polymerase) [2] |
| --- | --- | --- | --- | --- | --- | --- |
| E. coli RNA polymerase core enzyme (α2ββ′ω) (from UniProt P0A7Z4;P0A8V2;P0A8T7;P0A800) (complex) | 930 nM | 90% | 80% | 2 and 1 |  |  |
| E. coli RNA polymerase holoenzyme (core enzyme with bound sigma factor σ70) (from UniProt P0A7Z4;P0A8V2;P0A8T7;P0A800;P00579) (complex) | 1400 nM | 31% |  |  | 1200 nM |  |
| transcription elongation complex (core RNA polymerase with a bound DNA:RNA scaffold) (from UniProt P0A7Z4;P0A8V2;P0A8T7;P0A800) |  | 15% |  |  |  |  |
| vacant E. coli 70S ribosome (lacking bound mRNA and tRNAs) (from UniProt P0AG67;P0A7V0;P02358;P02359;P0A7X3;P0A7R9;P0A7L0;P0A7R1;P0A7K2;P0A7K6) (complex) |  |  |  |  |  | 1 |
